Values of other authors as cited in article PMC8472222.

Target: Rad57 (Saccharomyces cerevisiae) (UniProt P25301)
Chain of UniProt P25301 (P25301 whole entry): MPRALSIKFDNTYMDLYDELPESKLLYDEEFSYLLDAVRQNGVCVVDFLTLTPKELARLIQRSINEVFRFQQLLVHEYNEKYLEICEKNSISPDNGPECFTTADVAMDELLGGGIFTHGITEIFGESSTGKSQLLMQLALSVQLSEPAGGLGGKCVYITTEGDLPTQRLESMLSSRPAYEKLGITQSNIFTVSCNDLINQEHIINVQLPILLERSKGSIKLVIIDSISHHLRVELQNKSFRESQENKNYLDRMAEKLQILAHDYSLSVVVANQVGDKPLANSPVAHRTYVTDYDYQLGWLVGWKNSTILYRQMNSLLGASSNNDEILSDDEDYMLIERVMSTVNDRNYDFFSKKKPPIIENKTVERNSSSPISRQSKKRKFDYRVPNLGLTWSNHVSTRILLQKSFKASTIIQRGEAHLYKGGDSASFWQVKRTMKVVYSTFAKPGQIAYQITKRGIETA

- Kd: < 0.2 nM
Substance: Rad55 (from UniProt P38953)
